System: E. coli BL21 (DE3)+kan^R
Assay type: cell-based, Escherichia coli
Conditions: OD600 growth curve, 37° C., 96-well plates, duplicates averaged
Experimental: Growth was determined by measurement of the optical density at 600 nm (OD600) for 18 hours in 96-well plates at 37° C. The profile of the OD600 curves corresponds to the bacterial growth. […] Each sample was prepared in duplicate and the results averaged.
Antimicrobial activity was investigated in a 96-well plate by incubating E. coli BL21 (DE3)+kan^R bacteria either with microcin S alone or with microcin S and an antibiotic at 37° C. for 18 h.
To investigate whether microcin S in combination with antibiotics can likewise achieve synergistic effects on sensitive bacteria, growth profiles of the microcin S-sensitive indicator strain Escherichia coli BL21 (DE3) provided with a kanamycin resistance gene are recorded photometrically in a microtitre plate of 96-well format. […] After loading with the individual samples, the microtitre plate is incubated directly in a photometer (Epoch2 microplate reader from Biotek, USA) at 37° C. and 200 rpm (double-orbital, ∞) for 15 h. The optical density at 600 nm wavelength (OD600) is measured simultaneously for all wells at regular intervals. The graphic evaluation of the recorded measurement points is done subsequently with the aid of Microsoft Excel (Microsoft Corporation, USA). […]

B1: Microcin S: Antimicrobial polypeptide of E. coli G3/10 (SEQ ID NO: 7), prepared in a cell-free E. coli based in vitro expression system (protein, listed as Escherichia coli)
chain: NANSNYEGGGSRSRNTGARNSLGRNAPTHIYSDPSTVKCANAVFSGMVGGAIKGGPVGMTRGTIGGAVIGQCLSGGGNGNGGGNRAGSSNCSGSNVGGTCSR
Question: How did the “Time of incubation after which the antibacterial effect is observed (collapse of bacterial growth)” value turn out when B1 was run?
Answer: 5 h
